Test: yeast display, Sf9 membrane polyspecificity reagent, FACS + sequencing; frameworks hold sequencing errors
Outline: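 Polyreactivity labels are assigned by the sorting gate from which each nanobody was recovered. The gates were low and high (top ~1%), set on anti-HA fluorescence for expression and streptavidin fluorescence for reagent binding. Before sorting, galactose-induced (36–48 hours) yeast display cells were stained for 1 hour at 4 °C with 10% biotinylated, detergent-solubilized Sf9 membrane reagent.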

Row | Sequence | polyreactivity (PSR sort gate)
1 | QVQLVESGGGLVQAGGSLRLSCAASGSIFDWYAMGWYRQAPGKERELVAAIDSSGSSTYYADSVKGRFTISRDNAKNTVYLQMNSLKPEDTAVYYCAADSDWIRYWFGSLYGSDYWGQGTQVTVSS | low polyreactivity
2 | QVQLVESGGGLVQAGGSLRLSCAASGSIFDWYVMGWYRQPPGKERELVATITRDGSTNYADSVKGRFTISRDNAKNTVYLQMNSLKPEDTAVYYCNAASRAYGYNYWGQGTQVTVSS | low polyreactivity
3 | QVQLVESGGGLVQAGGSLRLSCAASGSIFDYNAMGGYRQAPGKERELVAAISSGGSTYYADSVKGRFTISRDNAKNTVNLQMNSLKPEDTAVYYCAVKFWVVIQFDYWGQGTHVTVSS | low polyreactivity
4 | QVQLVESGGGLVQAGGSLRLSCAASGSIFDYNAMGWYRQAPGKERELVASIRWSGGRTYYADSVKGRFTISRDNAKNTVYLQMNSLKPEDTAVYYCNRKPQEYVLQGSSNGYDYWGQGTQVTVSS | low polyreactivity
5 | QVQLVESGGGLVQAGGSLRLSCAASGSIFDYNAMGWYTQAPGKERELVAAITSGGSTNYADSVKGRFTISRDNAKNTVYLQMNSLKPEDTAVYYCAADHDYYPSNLDYWGQGTQVTVSS | low polyreactivity
6 | QVQLVESGGGLVQAGGSLRLSCAASGSIFDYNTMGWYRQAPGKERELVAVISGTGGSTYYADSVKGRFTISRGNAKNTVYLQMNSLKPEDTAVYYCAADTFVRNQWYLVEYWGQGTQVTVSS | low polyreactivity
7 | QVQLVESGGGLVQAGGSLRLSCAASGSIFDYYAMGWYRQAPGKERELVAAISSSGARTSYADSVKGRFTISRDNAKNTVYLQMNSLKPEDTAVYYCAAPYRSLKTGRYDYWGQGTQVTVSS | high polyreactivity
8 | QVQLVESGGGLVQAGGSLRLSCAASGSIFDYYAMGWYRQAPGKERELVAAISWSGGSTYYADSVKGRFTISRDNAKNTVYLQMNSLKPEDTAVYYCAALSLAYHEYDYWGLGTQVTVSS | high polyreactivity
9 | QVQLVESGGGLVQAGGSLRLSCAASGSIFDYYAMGWYRQAPGKERELVADITSGGSTNYADSVKGRFTISRDNAKNTVYLQMNSLKPEDTAVYYCNALASRYPAYYYWGQGTQVTVSS | low polyreactivity
10 | QVQLVESGGGLVQAGGSLRLSCAASGSIFDYYAMGWYRQAPGKERELVASINSSGTGTYYADSVKGRFTISRDNAKNTVYLQMNSLKPEDTAVYYCATRQAVGYSSGRGYGYWGQGTQVTVSS | low polyreactivity
11 | QVQLVESGGGLVQAGGSLRLSCAASGSIFDYYAMGWYRQAPGKERELVASITWSGGRTSYADSVKGRFTISRDNAKNTVYLQMNSLKPEDTAVYYCAAKLWSYAYQHKRVWYYYWGQGTQVTVSS | high polyreactivity
12 | QVQLVESGGGLVQAGGSLRLSCAASGSIFDYYAMGWYRQAPGKETEFVADICSSGTSTYYADSVKGRFTISRDNAKNTVYLQMNSLKPEDTAVYYCNSELDSWLSYVVAYFARFDYWGQGTQVTVSS | high polyreactivity
13 | QVQLVESGGGLVQAGGSLRLSCAASGSIFDYYTMGWYRQAPGKERELVAAITRSGGRTYYADSVKGRFTISRDYAKNTDYLLMNSLKPEDTAVYNCSTGAVSRFGNGPYDFWGQGTQVTVSS | high polyreactivity
14 | QVQLVESGGGLVQAGGSLRLSCAASGSIFEFNAMGWYRQAPGKERELVAAITWGGGSTYYADSVKGRFTISRDNAKNTVYLQMNSLKPEDTAVYYCNAAYGRYRYDYWGQGTQVTVSS | low polyreactivity
15 | QVQLVESGGGLVQAGGSLRLSCAASGSIFEFNTMGWYRQAPGKERELVAAISSSGGRTYYADSVKGRFTISRDNAKNSVYLQMNSLKPEDTAVYYCNARRFVHNPDYDYWGQGTQVTVSS | high polyreactivity
16 | QVQLVESGGGLVQAGGSLRLSCAASGSIFEGNAMGWYRQAPGKEREFVAAITKRGGSTYYADSVKGRFTISRDNAKITVYLQMNSLKTEDTAVYYCAKGYRRVFGPFYYWGQGTQVTVSS | low polyreactivity
17 | QVQLVESGGGLVQAGGSLRLSCAASGSIFEGYAMGWYRQAPGKERELVAAISWSSARTYYADSVKGRFTISRDNAKNTVYLQMNSLKPEDTAVYYCNAVARNNRNSRQRIPYDYWGQGTQVTVSS | high polyreactivity
18 | QVQLVESGGGLVQAGGSLRLSCAASGSIFEGYVMGWYRQAPGKERELVAAITTGGGSTYYADSVKGRFTISRDNAKKTVYLQMNSLKPEDTAVYYCAKDYWFGYEYWGQGTQVTVSS | low polyreactivity
19 | QVQLVESGGGLVQAGGSLRLSCAASGSIFEGYVMGWYRQAPGKERELVATISFSGGSTYYADSVKGRFTISRDNAKNTVYLQMNSLKPEDTAVYYCNALVYHTKGDYGYWGQGTQVTVSS | low polyreactivity
20 | QVQLVESGGGLVQAGGSLRLSCAASGSIFEGYVMGWYRQEPGKERELVATISFSGGSTYYADSVKGRFTISRDNAKTTVYLQMNSLKPEDTAVYYCNALVYHTKGDYGYWGQGTQVTVSS | low polyreactivity
21 | QVQLVESGGGLVQAGGSLRLSCAASGSIFEINAKGWYRQAPGKERELVADIRRGDSTNYADSVKGRFTISRDNAKNTVYLQMNSLKPEDTAVYYCAAYHRLFDYDYWGQGTQVTVSS | high polyreactivity
22 | QVQLVESGGGLVQAGGSLRLSCAASGSIFEIYAMGWYRQAPGKERELVASITWSGGSTYYADSVKGRFTISRDNAKNTVYLQMNSLKPEDTAVYYCATDKLYGRTVRMDYWGQGTQVTVSS | low polyreactivity

Row | Sequence | polyreactivity (PSR sort gate)
23 | QVQLVESGGGLVQAGGSLRLSCAASGSIFEIYAMGWYRQAPGKERQLVASITWSGGSTYYADSVKGRFTISRDNAKNTVYLQMNSLKPEDTAVYYCATDKLYGRTVRMDYWGQGTQVTVSS | low polyreactivity
24 | QVQLVESGGGLVQAGGSLRLSCAASGSIFENYAMGWYRQAPGKERELVAAISSSGDSTYYADSVKGRFTISRDNAKNTVYLQMNSLKPEDTAVYYCAAEISLSRSDRIESYDYWGQGTQVTVSS | low polyreactivity
25 | QVQLVESGGGLVQAGGSLRLSCAASGSIFEPNAMGWYRQAPGKEREFVAAISGSGGSTYYADSVKGRFTISRDNAKNTVYLQMNSLKPEDTAVYYCATRGKRSYFRTFYYWGQGTQVTVSS | high polyreactivity
26 | QVQLVESGGGLVQAGGSLRLSCAASGSIFEPNAMGWYRQAPGTERELVAAISWNDGDTYYADSVKGRFTISRDNAKNTVYFQMNSLKPEDPAVYYCAAAISLYSYDYWGQGTQVTVSS | low polyreactivity
27 | QVQLVESGGGLVQAGGSLRLSCAASGSIFEPNDMGWYRQAPGKEREFVAAISGSGGSTYYADSVKGRFTISRDNAKNTVYLQINSLKPEDTAVYYCANRGKRSYFRTFYYWGHGTQVTVSS | high polyreactivity
28 | QVQLVESGGGLVQAGGSLRLSCAASGSIFEPYAMGWYRTAPGKERELVAAISSGGSTNYADSVKGRFTISRDNAKNTVYLQMNSLKPEVTAVYYCAAAYYTVGWLYYDYWYPFAYYYWGQGTQVTVSS | low polyreactivity
29 | QVQLVESGGGLVQAGGSLRLSCAASGSIFEQYTMGWYRQAPGKERELVAAISRRYGRTYYADSVKGRFTISRDNAKNTVYLQMNSLKPEETAVYYCNTVYYGNFYSTRYDYWGHGTQVTVSS | high polyreactivity
30 | QVQLVESGGGLVQAGGSLRLSCAASGSIFERYAMGWYRQAPGKERELVAGISTDGSTYADSVKGRFTISRDNAKNTVYLQMNSLKPEDTAVYYCNKRRGFSAWYDYWGQGTQVTVSS | low polyreactivity
31 | QVQLVESGGGLVQAGGSLRLSCAASGSIFERYAMVWYRQAPGKERELVAAISWSGSSTYYADSVKGRFTISRDNAKNTVYLQMNSLKPEDTAVYYCNKVWIDTGMEYWGQGTQVTVSS | low polyreactivity
32 | QVQLVESGGGLVQAGGSLRLSCAASGSIFEWYAMGWYRLAPGKERELVAVFSVRGGSTYYADSVKGRFTMSRENAKNTVYLQMNSLKPEDTAVYYCAADRVAPYYGHKRFYSGGQGTQVTVSS | high polyreactivity
33 | QVQLVESGGGLVQAGGSLRLSCAASGSIFEWYAMGWYRQAPGKERELVAAINSGGSTYYADSVKGRFTISRDNAKNTVYLQMNSLKPEDTAVYYCNADTLLQDRLGDWYDYDYWGQGTQVTVSS | low polyreactivity
34 | QVQLVESGGGLVQAGGSLRLSCAASGSIFEYNAMGWYRQAPGKERELVAAITRGGNTYYADSVKGRFTISRDNAKNTVYLQMNSLKPEDTAVYYCAAVQWYGYPYYSWGQGTQVTVSS | low polyreactivity
35 | QVQLVESGGGLVQAGGSLRLSCAASGSIFEYYAMGWYRQAPGKERELVAAISTGGSTYYADSVKGRFTISRDNAKNTVYLQMNSLKPEDTAVYYCAAEDYHPGADTVGTGYDYWGQGTQVTVSS | low polyreactivity
36 | QVQLVESGGGLVQAGGSLRLSCAASGSIFEYYTMGWYRQAPGKERELVAGISWSGGSTYYADSVKGRFTISRDNAKNTVYLQMNSLKPEDTAVYYCAARSRSGRQEYYYWGQGTQVTVSS | high polyreactivity
37 | QVQLVESGGGLVQAGGSLRLSCAASGSIFFAYAMGRYRQAPGKERELVAAITSGVSTNYADSVKGRFTISRDNAKNTVYLQMNILKPEDTAVYFCNADFDYGFDAGVAVQVVINVYWGQGTEVTVSS | low polyreactivity
38 | QVQLVESGGGLVQAGGSLRLSCAASGSIFFAYSMGWYRQAPGKERELVAAISWSDGSTYYADSVKGRFTISRDNAKNTVYLQMNSLKPEDTAVYYCDKVYRSIGPNVSRYGLSYYYWGQCTQVTVSS | low polyreactivity
39 | QVQLVESGGGLVQAGGSLRLSCAASGSIFFDGNAMGWYRQAPGKERELVAAISVSGGSTYYADSVKGRFTISRDNAKNTVYLQMNSLKPEDTAVYYCAKYPSKSYVPGDYWGQGTQVTVSS | low polyreactivity
40 | QVQLVESGGGLVQAGGSLRLSCAASGSIFFEYAMGWYRQAAGKERELVAAIDVGGGGTDYADSVKGRFTISRDNAKNTVYLQMNSLKPEDTAVYYCAAQDYYYFGIGASYDYWGQGTQVTVSS | low polyreactivity
41 | QVQLVESGGGLVQAGGSLRLSCAASGSIFFFNAMGWYRQAPGKVREFVAAITSSSGRTYYADSVKGRFTISRDNAKNTVYLQMNSLKPEDTAVYYCAAQVPEDTETVDYWGQGTQVTVSS | low polyreactivity
42 | QVQLVESGGGLVQAGGSLRLSCAASGSIFFGNAMGWYRQAPGKERELVAAISTTGGSTYYADSVKGRFTISRDNEKNTVYLQMNSLKPEDTAVYYCNADRATWWEQWWYDYWGHGTQVTVSS | low polyreactivity
43 | QVQLVESGGGLVQAGGSLRLSCAASGSIFFINAMGWYRQAPGKERELVAAISSGGTTYYADSVKGRFTISRDNAKNTVYLQMNSLKPEDTAVYYCNAAGFPYAHTFFKGLVEYDSWGQGTQVTVSS | low polyreactivity

Reference: the nanobody polyreactivity screen of Harvey et al. (2022)
